B1: 1-phosphatidylinositol 4,5-bisphosphate phosphodiesterase gamma-1 (Bos taurus (Bovine)), P08487 (parent)
chain: MAGAASPCANGCGPSAPSDAEVVHLCRSLEVGTVMTLFYSKKSQRPERKTFQVKLETRQITWSRGADKIEGAIDIREIKEIRPGKTSRDFDRYQEDPAFRPDQSHCFVILYGMEFRLKTLSLQATSEDEVNMWIRGLTWLMEDTLQAATPLQIERWLRKQFYSVDRNREDRISAKDLKNMLSQVNYRVPNMRFLRERLTDLEQRTSDITYGQFAQLYRSLMYSAQKTMDLPFLEASALRAGERPELCRVSLPEFQQFLLEYQGELWAVDRLQVQEFMLSFLRDPLREIEEPYFFLDEFVTFLFSKENSIWNSQLDEVCPDTMNNPLSHYWISSSHNTYLTGDQFSSESSLEAYARCLRMGCRCIELDCWDGPDGMPVIYHGHTLTTKIKFSDVLHTIKEHAFVASEYPVILSIEDHCSIAQQRNMAQYFKKVLGDTLLTKPVDIAADGLPSPNQLKRKILIKHKKLAEGSAYEEVPTSVMYSENDISNSIKNGILYLEDPVNHEWYPHYFVLTSSKIYYSEETSSDQGNEDEEEPKEASGSTELHSNEKWFHGKLGAGRDGRHIAERLLTEYCIETGAPDGSFLVRESETFVGDYTLSFWRNGKVQHCRIHSRQDAGTPKFFLTDNLVFDSLYDLITHYQQVPLRCNEFEMRLSEPVPQTNAHESKEWYHASLTRAQAEHMLMRVPRDGAFLVRKRNEPNSYAISFRAEGKIKHCRVQQEGQTVMLGNSEFDSLVDLISYYEKHPLYRKMKLRYPINEEALEKIGTAEPDYGALYEGRNPGFYVEANPMPTFKCAVKALFDYKAQREDELTFTKSAIIQNVEKQEGGWWRGDYGGKKQLWFPSNYVEEMVSPAALEPEREHLDENSPLGDLLRGVLDVPACQIAVRPEGKNNRLFVFSISMASVAHWSLDVAADSQEELQDWVKKIREVAQTADARLTEGKMMERRKKIALELSELVVYCRPVPFDEEKIGTERACYRDMSSFPETKAEKYVNKAKGKKFLQYNRLQLSRIYPKGQRLDSSNYDPLPMWICGSQLVALNFQTPDKPMQMNQALFLAGGHCGYVLQPSVMRDEAFDPFDKSSLRGLEPCAICIEVLGARHLPKNGRGIVCPFVEIEVAGAEYDSIKQKTEFVVDNGLNPVWPAKPFHFQISNPEFAFLRFVVYEEDMFSDQNFLAQATFPVKGLKTGYRAVPLKNNYSEGLELASLLVKIDVFPAKQENGDLSPFGGASLRERSCDASGPLFHGRAREGSFEARYQQPFEDFRISQEHLADHFDGRDRRTPRRTRVNGDNRL
partner: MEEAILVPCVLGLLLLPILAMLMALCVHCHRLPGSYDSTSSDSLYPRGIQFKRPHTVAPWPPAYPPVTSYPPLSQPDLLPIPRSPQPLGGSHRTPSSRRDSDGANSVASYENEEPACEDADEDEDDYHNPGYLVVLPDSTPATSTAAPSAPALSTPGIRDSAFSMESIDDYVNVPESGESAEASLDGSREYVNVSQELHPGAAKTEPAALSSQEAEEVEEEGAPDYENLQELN
B2: 1-phosphatidylinositol 4,5-bisphosphate phosphodiesterase gamma-1 (Bos taurus (Bovine)), P08487 (parent)
chain: B1 chain
partner: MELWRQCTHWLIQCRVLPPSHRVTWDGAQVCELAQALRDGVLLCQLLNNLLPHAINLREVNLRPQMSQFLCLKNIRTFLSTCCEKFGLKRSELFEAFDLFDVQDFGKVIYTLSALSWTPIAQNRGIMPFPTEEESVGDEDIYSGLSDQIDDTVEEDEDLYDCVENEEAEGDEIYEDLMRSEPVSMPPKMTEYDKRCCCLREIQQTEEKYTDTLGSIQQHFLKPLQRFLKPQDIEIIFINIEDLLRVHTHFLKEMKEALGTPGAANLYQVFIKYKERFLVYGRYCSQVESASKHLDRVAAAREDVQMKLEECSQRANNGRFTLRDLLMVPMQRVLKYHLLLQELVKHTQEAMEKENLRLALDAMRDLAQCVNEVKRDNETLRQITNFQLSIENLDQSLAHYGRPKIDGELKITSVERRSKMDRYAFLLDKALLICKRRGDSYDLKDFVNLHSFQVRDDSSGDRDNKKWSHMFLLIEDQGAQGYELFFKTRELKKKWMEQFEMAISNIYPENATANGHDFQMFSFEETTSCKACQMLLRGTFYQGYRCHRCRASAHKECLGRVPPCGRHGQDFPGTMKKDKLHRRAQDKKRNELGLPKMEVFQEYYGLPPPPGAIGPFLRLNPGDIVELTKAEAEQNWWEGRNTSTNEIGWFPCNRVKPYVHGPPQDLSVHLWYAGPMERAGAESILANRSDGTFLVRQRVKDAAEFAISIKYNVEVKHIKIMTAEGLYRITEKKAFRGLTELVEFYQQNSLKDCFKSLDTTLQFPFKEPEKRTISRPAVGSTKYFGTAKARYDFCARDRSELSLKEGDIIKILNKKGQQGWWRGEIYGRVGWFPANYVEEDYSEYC
B3: 1-phosphatidylinositol 4,5-bisphosphate phosphodiesterase gamma-1 (Bos taurus (Bovine)), P08487 (parent)
chain: B1 chain
B4: 1-phosphatidylinositol 4,5-bisphosphate phosphodiesterase gamma-1 (Bos taurus (Bovine)), P08487 (parent)
chain: B1 chain
partner: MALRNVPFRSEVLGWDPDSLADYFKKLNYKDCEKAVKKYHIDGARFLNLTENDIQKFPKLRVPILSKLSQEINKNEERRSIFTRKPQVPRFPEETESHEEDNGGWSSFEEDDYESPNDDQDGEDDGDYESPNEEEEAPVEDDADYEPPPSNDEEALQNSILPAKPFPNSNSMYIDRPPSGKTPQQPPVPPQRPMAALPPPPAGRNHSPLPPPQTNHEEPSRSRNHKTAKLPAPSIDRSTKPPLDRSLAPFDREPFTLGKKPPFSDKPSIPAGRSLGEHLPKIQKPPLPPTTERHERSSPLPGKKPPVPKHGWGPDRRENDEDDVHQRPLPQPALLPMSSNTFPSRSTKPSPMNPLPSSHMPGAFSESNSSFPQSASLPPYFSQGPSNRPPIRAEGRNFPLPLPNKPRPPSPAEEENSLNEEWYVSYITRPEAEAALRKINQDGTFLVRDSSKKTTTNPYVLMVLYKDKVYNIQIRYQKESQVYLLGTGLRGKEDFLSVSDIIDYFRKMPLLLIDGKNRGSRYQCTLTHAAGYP

The first assay covers variants of B1. The following applies: with LAT.
Turning to R694K, the “effect of a mutation on the interaction” value was “disrupting interaction”.
Take R696K: the “effect of a mutation on the interaction” value is reported as “disrupting interaction”.
The same measure, in the same setting: the entry for P842K is “disrupting interaction”.

In another assay the parent is B1. The following applies: with LAT. The source holds these as a separate data set.
As for R586K, the “effect of a mutation on the interaction” value is on record as “disrupting interaction”.

In another assay the parent is B2. Particulars: with vav_human VAV1, P15498.
Regarding R696K, the “effect of a mutation on the interaction” value was “disrupting interaction”.
Regarding R694K, the “effect of a mutation on the interaction” value was “disrupting interaction”.

The next assay covers variants of B2. Particulars: with vav_human VAV1, P15498. The source holds these as a separate data set.
For the variant R586K, the “effect of a mutation on the interaction” value was “disrupting interaction”.

The variants in another assay derive from B2. Particulars: with vav_human VAV1, P15498. The source holds these as a separate data set.
P842K: the “effect of a mutation on the interaction” value is listed as “disrupting interaction”.

Variants of B3 are the subject of a further assay. Particulars: with cbl_human CBL.
On to P842K, for which the “effect of a mutation on the interaction” value is “disrupting interaction”.

In a further assay the parent is B4. Particulars: with lcp2_human LCP2, Q13094.
Turning to R694K, the “effect of a mutation on the interaction” value is “disrupting interaction”.
R696K: the “effect of a mutation on the interaction” value was “disrupting interaction”.

In a further assay the parent is B4. The following applies: with lcp2_human LCP2, Q13094. This is another data set of the same source.
For the variant P842K, the “effect of a mutation on the interaction” value is recorded as “disrupting interaction”.

The variants in a further assay derive from B4. The following applies: with lcp2_human LCP2, Q13094. This is another data set of the same source.
For R586K, the “effect of a mutation on the interaction” value is on record as “disrupting interaction”.

The values are drawn from IntAct's records for PubMed 16467851.
